Target: Recombinant human Src expressed in Sf9 insect cells (purified recombinant full-length Src from Upstate … (human, UniProt P12931 2-536))
Experiment: cell-based or functional assay

B1: pNaKtide (HIV-Tat-NaKtide) (peptide)
peptide: not shown
  IC50 of Src inhibition (in vitro kinase assay): ~5 nM

From patent publication US20110245167A1 (UNIVERSITY OF TOLEDO, published 2011)
